This note sets out measurements from US20230272086A1 (CHIA TAI TIANQING PHARMACEUTICAL GROUP, published 2023).

The target of test [1] is T1, human ST2 (hST2, Interleukin-1 receptor-like 1 isoform A) on cells (human, UniProt Q01638 19-556).
T1 sequence: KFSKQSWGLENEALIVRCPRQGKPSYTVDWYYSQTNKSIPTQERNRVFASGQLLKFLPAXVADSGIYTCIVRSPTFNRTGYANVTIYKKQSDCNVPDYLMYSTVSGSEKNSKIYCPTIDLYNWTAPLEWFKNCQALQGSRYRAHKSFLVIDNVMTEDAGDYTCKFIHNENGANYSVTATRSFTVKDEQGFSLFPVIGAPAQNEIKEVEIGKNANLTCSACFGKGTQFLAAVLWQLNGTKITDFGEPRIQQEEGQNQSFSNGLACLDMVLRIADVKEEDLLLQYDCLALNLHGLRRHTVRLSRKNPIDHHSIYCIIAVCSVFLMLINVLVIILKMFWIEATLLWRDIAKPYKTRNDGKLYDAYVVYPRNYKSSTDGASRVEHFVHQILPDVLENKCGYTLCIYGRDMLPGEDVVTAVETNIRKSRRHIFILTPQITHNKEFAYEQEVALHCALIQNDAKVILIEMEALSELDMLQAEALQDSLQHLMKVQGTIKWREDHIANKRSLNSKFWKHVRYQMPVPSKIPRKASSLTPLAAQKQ
Briefly: cell-based or functional assay.

The target in test [2] is T1, human ST2 (hST2, Interleukin-1 …). Briefly: cell-based or functional assay. This is another data set of the same source.
Test [3] concerns the target T2, recombinant protein containing hST2 extracellular domain with mouse antibody heavy chain Fc tag (hST2-ECD-mFc) (human).
T2 construct: Used for SPR and for ELISA of chimeric and humanized antibodies; also called human ST2 antigen
T2 chain: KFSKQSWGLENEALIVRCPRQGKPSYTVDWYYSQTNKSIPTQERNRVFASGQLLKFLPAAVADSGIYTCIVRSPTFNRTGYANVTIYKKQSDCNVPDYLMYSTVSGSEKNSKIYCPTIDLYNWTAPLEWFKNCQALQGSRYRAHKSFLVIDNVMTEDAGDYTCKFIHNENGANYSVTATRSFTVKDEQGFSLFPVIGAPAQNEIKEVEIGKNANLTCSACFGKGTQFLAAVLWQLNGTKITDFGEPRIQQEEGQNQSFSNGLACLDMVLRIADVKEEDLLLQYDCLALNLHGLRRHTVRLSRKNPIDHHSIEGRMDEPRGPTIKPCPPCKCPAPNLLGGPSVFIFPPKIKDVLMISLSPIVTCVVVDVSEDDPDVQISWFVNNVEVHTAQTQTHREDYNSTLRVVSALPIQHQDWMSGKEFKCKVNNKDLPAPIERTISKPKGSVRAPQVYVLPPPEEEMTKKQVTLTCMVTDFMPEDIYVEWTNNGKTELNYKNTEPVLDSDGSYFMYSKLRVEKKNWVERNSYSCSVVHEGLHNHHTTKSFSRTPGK
In words: ELISA, plate coated with hST2-ECD-mFc. The method, then:
ST2 binding screening and analysis of antibodies were performed by ELISA using hST2-ECD-mFc (for assays of chimeric and humanized antibodies), hST2-ECD-hFc protein (for assays of hybridoma antibodies) and Cyno-ST2-his (Sino biological, 90915-C08H) as antigens. A high-adsorption 96-well plate (Costar, 9018) was coated with 2 µg/mL hST2-ECD-mFc or Cyno-ST2-his antigen at 100 µL/well and incubated overnight at 4° C. After the antigen not adsorbed was well washed off, the non-specific binding sites were blocked with a blocking buffer (PBS containing 2% bovine serum albumin). After the plate was washed three times with a washing buffer (PBS containing 0.05% (v/v) Tween 20), the anti-ST2 antibodies (serially diluted 3-fold from an initial concentration of 10 nM to 8 concentrations: 3.333 nM, 1.111 nM, 0.370 nM, 0.123 nM, 0.041 nM, 0.014 nM, 0.005 nM, and 0.002 nM) were added at 100 µL/well, and the plate was incubated at room temperature for 1 h. After the plate was washed with the washing buffer, a horseradish peroxidase (HRP)-conjugated secondary antibody was added, and the plate was incubated for another 60 min. After the plate was washed with the washing buffer, the substrate TMB solution (Thermo, 00-4201-56) was added at 100 µL/well, and the plate was incubated at room temperature for 2 min. A stop solution (2 N H₂SO₄) was added at 100 µL/well to terminate the reactions. Colorimetric signals were generated and read at 450 nm using a microplate reader (PE, Envision). The data were analyzed using GraphPad Prism5, and the EC₅₀ values were calculated.
The humanized antibodies hz31C81-1.1 (the amino acid sequence of the heavy chain set forth in SEQ ID NO: 75 and the amino acid sequence of the light chain set forth in SEQ ID NO: 81) and hz31C8-1.2 (the amino acid sequence of the heavy chain set forth in SEQ ID NO: 77 and the amino acid sequence of the light chain set forth in SEQ ID NO: 81) were subjected to affinity, binding, blocking and cell function analyses using the methods described in Example 4, Example 5, Example 6, Example 7, Example 8, Example 9 and Example 10.
Background: ELISA stands for enzyme-linked immunosorbent assay.

The target in test [4] is T2, recombinant protein containing hST2 …. In words: SPR (Biacore T200), hST2-ECD-mFc captured by anti-mouse IgG on CM5, antibody as analyte, 1:1 model. How it is done: The reaction signals were detected in real time using a Biacore instrument (Cytiva, BiacoreT200), and then an association-dissociation curve was obtained. After the completion of dissociation in each cycle, the biochip was regenerated with a regeneration solution for the next capture; the procedure was repeated until the affinity of the different antibodies for ST2 was determined. The acquired data were finally analyzed using the GE BIAevaluation software with a 1:1 (Langmuir) binding model to determine the association rate constants ka (kon) and the dissociation rate constants kd (koff), and the dissociation constants KD were given by KD = kd/ka. The determined affinity of the anti-ST2 antibody for human ST2 antigen (hST2-ECD-mFc), cynomolgus monkey ST2 antigen (Cyno-ST2-his, Sino biological, 90915-C08H) and the determined affinity of the anti-ST2 chimeric antibodies for ST2 were shown in Table 5.
The humanized antibodies hz31C81-1.1 (the amino acid sequence of the heavy chain set forth in SEQ ID NO: 75 and the amino acid sequence of the light chain set forth in SEQ ID NO: 81) and hz31C8-1.2 (the amino acid sequence of the heavy chain set forth in SEQ ID NO: 77 and the amino acid sequence of the light chain set forth in SEQ ID NO: 81) were subjected to affinity, binding, blocking and cell function analyses using the methods described in Example 4, Example 5, Example 6, Example 7, Example 8, Example 9 and Example 10. In the present disclosure, “hz” and “xi” denote humanized antibodies and chimeric antibodies, respectively; for example, “hz31C81-1.1” and “hz31C81-1.2” represent humanized 31C81-1.1 and 31C81-1.2 antibodies, and “xi31C8” represents a chimeric 31C8 antibody.
A general note: SPR reads the build-up and loss of mass on a sensor chip optically.

B1: Chimeric 31C8 (antibody, human IgG2, kappa, V domains shown)
VH: QVQLQQSGPELVRPGASVTLSCKASGYIFIDSEMHWVKQTPVHGLEWIGAIDPETGDTVYNQKFKGKATLTADKSSSTASMELSSLTSEDSAVYYCTGSTTDYYFAYWGQGTTLTVSS
VL: DIVMTQAAFSNPVTLGTSASISCRSSKSLLHSNGIIYLYWYLQKPGQSPQLLIYQMSNLASGVPDRFSSSGSGTDFTLRISRVEAEDVGVYYCAQNLELPFTFGSGTKLEIKR
notes: also called xi31C8
One may read the EC50 as the concentration needed to bring the measured effect to its halfway point. As usually defined, the Kd is the free concentration of one partner at which half of the binding sites on the other are occupied at equilibrium, for simple one-to-one binding. On to B1, for which the “IC50, blocking of the IL33/ST2 signaling (NFκB luciferase reporter, HEK293T-hST2-NFκB-Luciferase cells, 50 pM hIL33 protein SEQ ID NO: 8)” value in test [1] is 2.53 nM. The “IC50, blocking of the IL33/ST2-induced IL5 secretion on CD4+ T cells (hIL33 plus IL2 co-stimulation)” value (shortened to “IC50, blocking … (hIL33 plus IL2 co-stimulation)”) in test [2] was 0.09 nM. Further, in test [3], the EC50 was 0.0865 nM. Also, the dissociation constant (Kd) in test [4] is 0.129 nM.

B2: Chimeric 3C6 (antibody, human IgG2, kappa, V domains shown)
VH: QVQLQQSGAEVVRPGASVTLSCKASDYTITDYEMHWVKQTPVHGLEWIGAIDPETGDTAYSQNFKGKATLTADESSSTAYMELSSLTSEDSAVYYCSRSATDYYFASWGQGTTLTVSS
VL: DIVMTQAAISNPVTLGTSASMSCRSSKSLLHSNGITYLYWYLQKPGHSPQLLIYQMSNLASGVPDRFSSSGSGTDFTLKISRVEAEDVGVYYCAQNLELPFTFGSGTKLEIKR
notes: also called xi3C6
In the case of B2, the “IC50, blocking of the IL33/ST2 signaling (NFκB luciferase reporter, HEK293T-hST2-NFκB-Luciferase cells, 50 pM hIL33 protein SEQ ID NO: 8)” value in test [1] came out at 0.673 nM.

B3: Chimeric 26A1 (antibody, human IgG2, kappa, V domains shown)
VH: QVQLQQSGAELVRPGASVTLSCKASDYIFTDSEIHWVKQTLVHGLEWIGAIDPETGDTAYNQKFKGKATLTADKSSSTAYMELSSLTSEGSAVYYCSGSTTDCYFAYWGQGTTLTVSS
VL: DIVMTQAAFSNPVTLGTSASISCRSSKSLLHSNGIIYLYWYLQKPGQSPQLLIYQMSNLASGVPDRFSSSGSGTDFTLRISRVEAEDVGVYYCAQNLELPFTFGSGTKLEIKR
notes: also called xi26A1
Regarding B3, in test [1], the “IC50, blocking of the IL33/ST2 signaling (NFκB luciferase reporter, HEK293T-hST2-NFκB-Luciferase cells, 50 pM hIL33 protein SEQ ID NO: 8)” value stood at 7.57 nM.

B4: Chimeric 17E2 (antibody, human IgG2, kappa, V domains shown)
VH: QVQLQQSGAELVRPGASVTLSCKASGYTFTDYEMHWVKQTPVLGLEWIGAIDPETGDTAYNQKFKGKATLTADKSSSTAYMELSSLASEDSAVYYCIRVDSNYDYFDYWGQDTTLTVSS
VL: DIVLTQSPPILSASPGEKVTMTCRASSSVSYMHWYQQKPGSSPKPWIYDTSNLASGVPARFSGSGSGTSYSLTISRVEAEDAATYYCQQWSSNPLTFGAGTKLELKR
notes: also called xi17E2
With B4, the “IC50, blocking … (hIL33 plus IL2 co-stimulation)” value in test [2] was 0.08 nM.

B5: Humanized 31C8-1.1 (antibody, human IgG2, kappa, V domains shown)
VH: EVQLVQSGAEVKKPGATVKISCKASGYIFIDSEMHWVQQAPGKGLEWMGAIDPETGDTVYAEKFQGRVTITADKSSSTAYMELSSLRSEDTAVYYCTGSTTDYYFAYWGQGTLVTVSS
VL: DIQMTQSPSSLSASVGDRVTITCRSSKSLLHSNGIIYLYWYQQKPGKAPKLLIYQLSNLASGVPSRFSSSGSGTDFTLTISSLQPEDFATYYCAQNLELPFTFGQGTKVEIKR
notes: also called hz31C8-1.1; hz31C81-1.1
Turning to B5, the EC50 in test [3] stood at 0.0879 nM. The Kd in test [4] worked out at 0.0836 nM.

B6: Humanized 31C8-1.2 (antibody, human IgG2, kappa, V domains shown)
VH: QVQLVQSGAKVKKPGATVKISCKASGYIFIDSEMHWVQQAPGKGLEWMGAIDPETGDTVYAKKFKGRVTITADKSSSTAYMELSSLRSEDTAVYYCTGSTTDYYFAYWGQGTLVTVSS
VL: DIQMTQSPSSLSASVGDRVTITCRSSKSLLHSNGIIYLYWYQQKPGKAPKLLIYQLSNLASGVPSRFSSSGSGTDFTLTISSLQPEDFATYYCAQNLELPFTFGQGTKVEIKR
notes: also called hz31C8-1.2; hz31C81-1.2
With B6, the EC50 in test [3] is 0.0937 nM. Besides, in test [4], the Kd stood at 0.145 nM.

B7: Chimeric 7D1 (antibody, human IgG2, kappa, V domains shown)
VH: QVQLQQSGAELVRPGASVTLSCKASGYTFTDYEMHWVKQTPVHGLDWIGTIDPETGDTAYNQKFKGRATLTADKSSSTAYMELSSLTSEDSAVYYCTRYSYTNSPYGMDYWGQGTSVTVSS
VL: DVVMTQTPKFLLVSAGDRVTITCKASQSVSNDVAWYQQKPGQSPKLLIYYASNRYTGVPDRFTGSGYGTDFTFTINTVQAEDLAVYFCQQDYSSPYTFGGGTKLEIKR
notes: also called xi7D1
Regarding B7, the “IC50, blocking of the IL33/ST2 signaling (NFκB luciferase reporter, HEK293T-hST2-NFκB-Luciferase cells, 50 pM hIL33 protein SEQ ID NO: 8)” value in test [1] was determined as 0.12 nM. The “IC50, blocking … (hIL33 plus IL2 co-stimulation)” value in test [2] was 0.12 nM.

B8: GSK3772847 (antibody STLM208 in CN104411333, prepared in-house) (antibody, human IgG2, kappa, V domains shown)
VH: EVQLLESGGGLVQPGGSLRLSCAASGFTFSIYDMIWVRQAPGKGLEWVSSIRGEGGGTYYADSVKGRFTISRDNSKNTLYLQMNSLRAEDTAVYYCARDPWSTEGSFFVLDYWGQGTLVTVSS
VL: EIVLTQSPATLSLSPGERATLSCRASQSVDDDLAWYQQKPGQAPRLLIYDASNRATGIPARFSGSGSGTDFTLTISSLEPEDFAVYYCQQYITAPLTFGQGTKVEIKR
notes: Control anti-ST2 antibody
As to B8, the EC50 in test [3] worked out at 0.127 nM. Also, the Kd in test [4] is 0.0958 nM.

B9: RG6149 (antibody Ab2 in CN104334582, prepared in-house) (antibody, human IgG2, kappa, V domains shown)
VH: EVQLVQSGAEVKKPGESLKISCKGSGYSFTNYWIGWVRQMPGKGLEWMGIIYPGNSDTRFSPSFQGQVTISADKSITTAYLQWSSLKASDTAMYYCARHGTSSDYYGLDVWGQGTTVTVSS
VL: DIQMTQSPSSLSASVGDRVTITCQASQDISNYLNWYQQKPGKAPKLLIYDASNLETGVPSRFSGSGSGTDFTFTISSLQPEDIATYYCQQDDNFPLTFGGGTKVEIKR
notes: Control anti-ST2 antibody
With B9, the “IC50, blocking of the IL33/ST2 signaling (NFκB luciferase reporter, HEK293T-hST2-NFκB-Luciferase cells, 50 pM hIL33 protein SEQ ID NO: 8)” value in test [1] amounted to 11.9 nM. Besides, the “IC50, blocking … (hIL33 plus IL2 co-stimulation)” value in test [2] came to 0.32 nM. For the same molecule, the EC50 in test [3] was 0.113 nM. Further, in test [4], the Kd is 0.128 nM.
